These results are taken from publication PMC3605678 (The Journal of Biological Chemistry, 2013).

First the molecules themselves.
B1: ERK5 MAPK construct containing the N-terminal region of ERK5-(1–431) (domain or fragment)
chain: MAEPLKEEDGEDGSAEPPGPVKAEPAHTAASVAAKNLALLKARSFDVTFDVGDEYEIIETIGNGAYGVVSSARRRLTGQQVAIKKIPNAFDVVTNAKRTLRELKILKHFKHDNIIAIKDILRPTVPYGEFKSVYVVLDLMESDLHQIIHSSQPLTLEHVRYFLYQLLRGLKYMHSAQVIHRDLKPSNLLVNENCELKIGDFGMARGLCTSPAEHQYFMTEYVATRWYRAPELMLSLHEYTQAIDLWSVGCIFGEMLARRQLFPGKNYVHQLQLIMMVLGTPSPAVIQAVGAERVRAYIQSLPPRQPVPWETVYPGADRQALSLLGRMLRFEPSARISAAAALRHPFLAKYHDPDDEPDCAPPFDFAFDREALTRERIKEAIVAEIEDFHARREGIRQQIRFQPSLQPVASEPGCPDVEMPSPWAPSGDCAM

For experiment [1], the target named is Full-length MKK5 (MKK5_FL) (human, UniProt Q13163 1-448). As to the kind of experiment: fluorescence polarisation. A general note: In fluorescence polarisation assays a small probe gives low polarisation when free and higher when bound to something large.
Experiment [2] deals with B1. In words: fluorescence polarisation.
Experiment [3] addresses T1, MBP fusion of MKK5(PB1-D) (construct E, 16–130) (human, UniProt Q13163 16-130).
T1 sequence: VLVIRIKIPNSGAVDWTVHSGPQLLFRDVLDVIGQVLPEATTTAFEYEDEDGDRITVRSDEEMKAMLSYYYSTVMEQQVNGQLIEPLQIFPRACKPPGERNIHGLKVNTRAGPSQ
In words: pull-down.

Experiment [4] addresses B1. In words: pull-down.
In another experiment the target is ERK2 (human, UniProt P28482 1-360). As to the kind of experiment: fluorescence polarisation.
The target in experiment [5] is B1. As to the kind of experiment: fluorescence polarisation. This is another data set of the same source.

No end group written: not given here.

ERK2, sequence (P28482 whole entry): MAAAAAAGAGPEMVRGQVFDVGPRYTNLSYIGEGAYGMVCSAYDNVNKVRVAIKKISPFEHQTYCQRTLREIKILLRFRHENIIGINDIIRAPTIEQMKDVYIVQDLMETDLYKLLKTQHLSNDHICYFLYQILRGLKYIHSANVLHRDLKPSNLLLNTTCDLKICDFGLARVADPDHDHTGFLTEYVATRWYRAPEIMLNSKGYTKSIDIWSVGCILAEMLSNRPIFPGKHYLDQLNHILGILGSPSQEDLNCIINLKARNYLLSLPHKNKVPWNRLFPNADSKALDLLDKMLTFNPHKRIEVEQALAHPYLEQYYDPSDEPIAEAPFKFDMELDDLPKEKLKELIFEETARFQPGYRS

The term Kd denotes the equilibrium constant for the complex coming apart. Read a low Kd as tighter binding. Regarding B1, in experiment [1], the Kd is below 0.1 µM.
Turning to tetramethylrhodamin-SRKPDLRVVIPPS [pepMEF2 (labeled MEF2A D-motif peptide)], the binding result in experiment [2] is “binds”.

B2: GST-MEKK3(PB1) (MEKK3 PB1 domain, residues 42–126) (domain or fragment)
chain: QSDVRIKFEHNGERRIIAFSRPVKYEDVEHKVTTVFGQPLDLHYMNNELSILLKNQDDLDKAIDILDRSSSMKSLRILLLSQDRN
Consider B2, for which the binding result in experiment [3] is “binds”.

B3: MBP fusion of MKK5 construct B (113–448) (domain or fragment, human, UniProt Q13163 113-448, looked up)
chain: GERNIHGLKVNTRAGPSQHSSPAVSDSLPSNSLKKSSAELKKILANGQMNEQDIRYRDTLGHGNGGTVYKAYHVPSGKILAVKVILLDITLELQKQIMSELEILYKCDSSYIIGFYGAFFVENRISICTEFMDGGSLDVYRKMPEHVLGRIAVAVVKGLTYLWSLKILHRDVKPSNMLVNTRGQVKLCDFGVSTQLVNSIAKTYVGTNAYMAPERISGEQYGIHSDVWSLGISFMELALGRFPYPQIQKNQGSLMPLQLLQCIVDEDSPVLPVGEFSEPFVHFITQCMRKQPKERPAPEELMGHPFIVQFNDGNAAVVSMWVCRALEERRSQQGPP
Take B3: the binding result in experiment [4] is reported as “binds”.
For the molecule ASKPPGERNIHGLKVNTRA [pepMKK5 (peptide with the linear D-motif of MKK5)], the values for the Kd (with ERK2; in experiment [5]) were above 100 µM and 4.2 µM, respectively.
